Measured values from US20260055171A1 (Regeneron, published 2026).

Experiments:
[1] = molecular target: T1, hCD64-Biotin (human, UniProt P12314 16-288, limits assumed, biotin (site not stated)); test: binding kinetics on hCD64-Biotin, signal (nm) against time (sec); construct diluted 1:5 from 50 nM, concentrations not labelled on the sheet; platform not named
T1 construct: also called CD64 (FcγRI); CD64 (FcGRI)
Protocol: (§1) Binding affinity of VEGF antagonists to Fc receptors CD16 (FcγRIIIa), CD64 (FcγRI), and FcRn was evaluated using hCD16-biotin, hCD64-biotin, and hFcRn-β2M-biotin.
(§2) For FcγRIIIa and FcγRI binding assessments, each construct was diluted 1:5 from a starting concentration of 50 nM, except Hex-REGN3 (IgG1) Mut1 PVA/P329A, which was evaluated only at the highest concentration. For FcRn assessments, each construct was diluted 1:5 from a starting concentration of 200 nM, except Hex-REGN3 (IgG1) Mut1 PVA/P329A, which was evaluated only at the highest concentration.

[2] = molecular target: T2, hFcRn-β2M-Biotin (human, UniProt P55899 24-297; P61769 21-119, biotin (site and chain not stated)); test: binding kinetics on hFcRn-β2M-Biotin, signal (nm) against time (sec); construct diluted 1:5 from 200 nM, concentrations not labelled on the sheet; platform not named
Protocol: as §1, §2

[3] = molecular target: T3, hCD16a-Biotin (human, UniProt P08637 17-208, biotin (site not stated)); test: binding kinetics on hCD16a-Biotin, signal (nm) against time (sec); platform not named
T3 construct: also called CD16 (FcγRIIIa); CD16a (FcGRIIIa)
T3 sequence (P08637 17-208 limits assumed): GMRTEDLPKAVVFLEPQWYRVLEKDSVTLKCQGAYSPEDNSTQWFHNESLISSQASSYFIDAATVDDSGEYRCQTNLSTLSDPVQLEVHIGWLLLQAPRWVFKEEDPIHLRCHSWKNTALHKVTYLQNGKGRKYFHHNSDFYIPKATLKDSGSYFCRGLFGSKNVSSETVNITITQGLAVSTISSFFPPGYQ
Protocol: as §1, §2

[4] = molecular target: T1, hCD64-Biotin; test: binding kinetics on hCD64-Biotin, instrument not named
Protocol: as §1, §2

[5] = molecular target: T2, hFcRn-β2M-Biotin; test: binding kinetics on hFcRn-β2M-Biotin, instrument not named
Protocol: as §1, §2

[6] = molecular target: T1, hCD64-Biotin; test: binding kinetics on hCD64-Biotin, signal (nm) against time (sec); platform not named
Protocol: as §1, §2

T1 sequence (P12314 16-288 limits assumed): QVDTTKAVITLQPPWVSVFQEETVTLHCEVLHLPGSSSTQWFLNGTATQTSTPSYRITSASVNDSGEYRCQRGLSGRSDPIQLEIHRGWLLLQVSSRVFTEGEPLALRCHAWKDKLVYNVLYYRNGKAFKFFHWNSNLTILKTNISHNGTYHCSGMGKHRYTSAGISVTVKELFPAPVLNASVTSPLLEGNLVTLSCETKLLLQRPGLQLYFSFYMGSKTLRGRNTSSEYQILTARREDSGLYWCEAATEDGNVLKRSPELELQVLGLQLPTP

binding result [1] | binding result [2] | Kd [4] | koff [4] | kon [4] | Kd [5] | koff [5] | kon [5] | Binder | binding result [3] | binding result [6]
binds | binds | – | – | – | – | – | – | Hex-REGN3 (IgG1) Mut2 LALAPG (Fc fusion, Hexameric VEGF antagonist designed as six dimers) SDTGRPFVEMYSEIPEIIHMTEGRELVIPCRVTSPNITVTLKKFPLDTLIPDGKRIIWDSRKGFIISNATYKEIGLLTCEATVNGHLYKTNYLTHRQTNTIIDVVLSPSHGIELSVGEKLVLNCTARTELNVGIDFNWEYPSSKHQHKKLVNRDLKTQSGSEMKKFLSTLTIDGVTRSDQGLYTCAASSGLMTKKNSTFVRVHEKDKTHTCPPCPAPEAAGGPSVFLFPPKPKDTLMCSRTPEVTCVVVDVSHEAPEVKFNWYVDGVEVHNAKTKPREEQYNSTYRVVSVLTVLHQDWLNGKEYKCKVSNKALGAGIEKTISKAKGQPREPQVYTLPPSRDELTKNQVSLTCLVKGFYPSDIAVEWESNGQPENNYKTTPPVLDSDGSFFLYSKLTVDKSRWQQGNVFSCSVMHEALHNHYTQKSLSLSPGKPTLYNVSLVMSDTAGTCY | no binding (tested: 50 nM (not printed on the sheet)) | –
– | – | 0.0638 nM | 0.000511 s⁻¹ | 8.01e+06 M⁻¹ s⁻¹ | < 0.001 nM | < 1e-07 s⁻¹ | 31000 M⁻¹ s⁻¹ | Hex-REGN3 (IgG1) Mut1 LALAPG (Fc fusion, Hexamer of six dimers (VEGFR1 domain 2 - VEGFR2 domain 3 - IgG1 Fc - IgM tailpiece); also called HEX-REGN3 (IgG1) LALAPG Mut1; hexameric Hex-REGN3) SDTGRPFVEMYSEIPEIIHMTEGRELVIPCRVTSPNITVTLKKFPLDTLIPDGKRIIWDSRKGFIISNATYKEIGLLTCEATVNGHLYKTNYLTHRQTNTIIDVVLSPSHGIELSVGEKLVLNCTARTELNVGIDFNWEYPSSKHQHKKLVNRDLKTQSGSEMKKFLSTLTIDGVTRSDQGLYTCAASSGLMTKKNSTFVRVHEKDKTHTCPPCPAPEAAGGPSVFLFPPKPKDTLMISRTPEVTCVVVDVSHEDPEVKFNWYVDGVEVHNAKTKPREEQYNSTYRVVSVLTVCHQDWLNGKEYKCKVSNKALGAPIEKTISKAKGQPREPQVYTLPPSREEMTKNQVSLTCLVKGFYPSDIAVEWESNGQPENNYKTTPPVLDSDGSFFLYSKLTVDKSRWQQGNVFSCSVMHEALHNHYTQKSLDKSTGKPTLYNVSLIMSDTGGTCY | no binding (tested: 50 nM (not printed on the sheet)) | –
– | – | – | – | – | – | – | – | Hex-REGN3 (IgG1) Mut1-V2 PVA/P329A (Fc fusion, Hexameric VEGF antagonist designed as six dimers; also called Hex-REGN3 (IgG1) Mut1 PVA/P329A) SDTGRPFVEMYSEIPEIIHMTEGRELVIPCRVTSPNITVTLKKFPLDTLIPDGKRIIWDSRKGFIISNATYKEIGLLTCEATVNGHLYKTNYLTHRQTNTIIDVVLSPSHGIELSVGEKLVLNCTARTELNVGIDFNWEYPSSKHQHKKLVNRDLKTQSGSEMKKFLSTLTIDGVTRSDQGLYTCAASSGLMTKKNSTFVRVHEKDKTHTCPPCPAPPVAGPSVFLFPPKPKDTLMISRTPEVTCVVVDVSHEDPEVKFNWYVDGVEVHNAKTKPREEQYNSTYRVVSVLTVCHQDWLNGKEYKCKVSNKALAAPIEKTISKAKGQPREPQVYTLPPSREEMTKNQVSLTCLVKGFYPSDIAVEWESNGQPENNYKTTPPVLDSDGSFFLYSKLTVDKSRWQQGNVFSCSVMHEALHNHYTQKSLDKSTGKPTLYNVSLVMSDTAGTCY | no binding (tested: 50 nM (not printed on the sheet)) | no binding (tested: 50 nM (not printed on the sheet))
